From US20250296984A1 (THELPER, published 2025)
Like-named read-outs stand apart in the source and are kept apart here.

T1: mutated US28 (artificial form with all known US28 mutations) fused to a C-terminal 6His tag (artificial variant of human …, UniProt P69332 1-354)
T1 construct: also called mutated strain; CHO-mutated strain
T1 chain: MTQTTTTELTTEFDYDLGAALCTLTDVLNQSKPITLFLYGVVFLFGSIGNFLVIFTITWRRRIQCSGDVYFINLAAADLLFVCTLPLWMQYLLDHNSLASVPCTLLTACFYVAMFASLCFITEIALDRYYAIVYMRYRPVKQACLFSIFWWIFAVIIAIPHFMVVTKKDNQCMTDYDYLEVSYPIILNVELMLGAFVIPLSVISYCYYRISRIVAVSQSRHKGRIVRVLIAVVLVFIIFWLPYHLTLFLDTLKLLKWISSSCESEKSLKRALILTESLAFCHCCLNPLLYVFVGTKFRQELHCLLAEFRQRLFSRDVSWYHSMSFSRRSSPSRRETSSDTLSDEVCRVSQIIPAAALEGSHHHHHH

T2: US28 of HCMV strain VHL/E fused to a C-terminal 6His tag (human cytomegalovirus (HCMV) strain …, UniProt P69332 1-354)
T2 construct: also called VHL/E-encoded US28
T2 chain: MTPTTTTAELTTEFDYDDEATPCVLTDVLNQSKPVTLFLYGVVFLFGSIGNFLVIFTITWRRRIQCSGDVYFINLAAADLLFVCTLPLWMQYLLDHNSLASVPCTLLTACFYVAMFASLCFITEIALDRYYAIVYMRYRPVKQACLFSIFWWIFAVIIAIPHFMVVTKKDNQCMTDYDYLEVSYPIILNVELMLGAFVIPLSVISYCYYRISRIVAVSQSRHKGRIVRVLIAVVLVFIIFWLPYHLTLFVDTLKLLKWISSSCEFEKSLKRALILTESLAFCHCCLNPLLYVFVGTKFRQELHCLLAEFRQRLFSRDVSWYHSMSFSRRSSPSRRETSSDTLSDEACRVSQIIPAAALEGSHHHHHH

T3: US28 of HCMV strain TB40/E fused to a C-terminal 6His tag (human cytomegalovirus (HCMV) strain …, UniProt P69332 1-354)
T3 construct: also called TB40/E form of US28
T3 chain: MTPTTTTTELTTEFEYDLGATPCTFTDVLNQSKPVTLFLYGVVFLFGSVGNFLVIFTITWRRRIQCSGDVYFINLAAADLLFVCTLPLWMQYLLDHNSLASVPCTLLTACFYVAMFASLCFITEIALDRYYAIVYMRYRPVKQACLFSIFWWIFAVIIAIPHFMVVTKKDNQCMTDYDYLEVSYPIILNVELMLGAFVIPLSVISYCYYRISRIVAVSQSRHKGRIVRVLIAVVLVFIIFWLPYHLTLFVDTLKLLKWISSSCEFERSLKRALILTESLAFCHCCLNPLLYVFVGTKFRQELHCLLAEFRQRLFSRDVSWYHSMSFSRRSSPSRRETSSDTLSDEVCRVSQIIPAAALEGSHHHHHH

T4: US28 of HCMV strain Merlin fused to a C-terminal 6His tag (human cytomegalovirus (HCMV) strain …, UniProt F5HF62 1-354)
T4 construct: also called Merlin-encoded US28
T4 sequence: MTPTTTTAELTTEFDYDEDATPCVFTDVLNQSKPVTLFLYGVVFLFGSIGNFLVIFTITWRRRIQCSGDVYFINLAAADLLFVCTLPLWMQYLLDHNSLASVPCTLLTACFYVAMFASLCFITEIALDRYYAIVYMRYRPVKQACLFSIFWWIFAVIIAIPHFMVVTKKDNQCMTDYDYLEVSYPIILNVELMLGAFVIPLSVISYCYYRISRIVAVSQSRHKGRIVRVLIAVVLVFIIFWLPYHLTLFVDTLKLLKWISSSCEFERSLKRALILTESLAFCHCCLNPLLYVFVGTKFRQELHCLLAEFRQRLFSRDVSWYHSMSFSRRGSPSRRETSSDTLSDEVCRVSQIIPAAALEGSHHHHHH

T5: US28 of HCMV strain DB fused to a C-terminal 6His tag (human cytomegalovirus (HCMV) strain DB, UniProt P69332 1-354)
T5 chain: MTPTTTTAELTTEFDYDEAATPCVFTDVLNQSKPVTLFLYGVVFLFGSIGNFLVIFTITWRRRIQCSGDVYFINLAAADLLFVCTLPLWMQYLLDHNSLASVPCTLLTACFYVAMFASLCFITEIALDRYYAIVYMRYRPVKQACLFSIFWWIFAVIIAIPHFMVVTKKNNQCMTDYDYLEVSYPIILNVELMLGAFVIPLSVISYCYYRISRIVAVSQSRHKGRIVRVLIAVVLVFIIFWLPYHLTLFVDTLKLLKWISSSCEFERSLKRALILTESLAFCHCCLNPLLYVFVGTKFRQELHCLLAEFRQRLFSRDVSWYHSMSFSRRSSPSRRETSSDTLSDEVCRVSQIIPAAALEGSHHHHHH

T6: US28 of HCMV strain Ad169 (human cytomegalovirus (HCMV) strain …, UniProt P69332 1-354)
T6 sequence: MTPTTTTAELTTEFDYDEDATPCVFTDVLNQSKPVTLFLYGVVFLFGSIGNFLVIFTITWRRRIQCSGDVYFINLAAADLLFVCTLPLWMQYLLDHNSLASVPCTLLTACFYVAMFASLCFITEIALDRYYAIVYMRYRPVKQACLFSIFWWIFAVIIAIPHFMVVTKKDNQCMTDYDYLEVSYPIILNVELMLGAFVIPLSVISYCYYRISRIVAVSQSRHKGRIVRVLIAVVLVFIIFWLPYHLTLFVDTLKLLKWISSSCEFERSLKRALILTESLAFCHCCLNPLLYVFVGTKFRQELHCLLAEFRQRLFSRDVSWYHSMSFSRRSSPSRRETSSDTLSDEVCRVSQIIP


Assays:
[1] = molecular target: T1, mutated US28 (artificial form with all …); assay: flow cytometry, CHO-mutated strain against control CHO cells (FIG. 21B)
[2] = molecular target: T2, US28 of HCMV strain VHL/E fused to a …; assay: flow cytometry, processed data of FIG. 33; reference
[3] = molecular target: T3, US28 of HCMV strain TB40/E fused to a …; assay: flow cytometry, CHO cells expressing US28 of strain TB40/E
[4] = molecular target: T1, mutated US28 (artificial form with all …); assay: flow cytometry, CHO cells expressing the mutated US28
[5] = molecular target: T4, US28 of HCMV strain Merlin fused to a …; assay: flow cytometry, transfected HEK Phoenix cells, 6.76 nM
[6] = molecular target: T3, US28 of HCMV strain TB40/E fused to a …; assay: as above
[7] = molecular target: T5, US28 of HCMV strain DB fused to a …; assay: as above
[8] = molecular target: T2, US28 of HCMV strain VHL/E fused to a …; assay: as above
[9] = molecular target: T3, US28 of HCMV strain TB40/E fused to a …; assay: flow cytometry, CHO cells (FIG. 21D)
[10] = molecular target: T4, US28 of HCMV strain Merlin fused to a …; assay: flow cytometry, processed data of FIG. 33
[11] = molecular target: T3, US28 of HCMV strain TB40/E fused to a …; assay: flow cytometry, processed data of FIG. 33
[12] = molecular target: T5, US28 of HCMV strain DB fused to a …; assay: flow cytometry, processed data of FIG. 33
[13] = molecular target: T3, US28 of HCMV strain TB40/E fused to a …; assay: flow cytometry, CHO cells (FIG. 21C)
[14] = molecular target: T5, US28 of HCMV strain DB fused to a …; assay: flow cytometry, CHO cells expressing US28 of strain DB
[15] = molecular target: T5, US28 of HCMV strain DB fused to a …; assay: flow cytometry, CHO-US28 against control CHO cells
[16] = molecular target: T6, US28 of HCMV strain Ad169; assay: flow cytometry, HCMV Ad169 infected against Mock MRC-5 cells
[17] = molecular target: T5, US28 of HCMV strain DB fused to a …; assay: flow cytometry, CHO-US28 against control CHO cells

Row | Binder | specificity (US28 cells over control cells) [1] | variation in binding relative to US28 as encoded by VHL/E [2] | % of cells bound [3] | % of cells bound [4] | binding value (Preliminary Binding Data) [5] | binding value (Preliminary Binding Data) [6] | binding value (Preliminary Binding Data) [7] | binding value (Preliminary Binding Data) [8] | % retention of binding activity between the DB and TB40/E forms [9] | variation in binding relative to US28 as encoded by VHL/E [10] | variation in binding relative to US28 as encoded by VHL/E [11] | variation in binding relative to US28 as encoded by VHL/E [12] | % change in absolute binding between the DB and TB40/E forms [13] | % of cells bound [14] | binding specificity comparative to the specificity displayed by VUN100 [15] | fold binding, infected over uninfected cells [16] | binding specificity comparative to the specificity displayed by VUN100 [17] | binding result [4]
1 | bivalent VUN100 (VHH, also called VUN100b; BvVUN100) EVQLVESGGGLVQPGGSLRLACAVSGPGLIFKFTGVAWYRRQVPGAKRGLVALITGDGATRYGDSVKGRFTVSRDIAAKRVYLEMNDLRSEDTAVYYCKTGEYWGQGTQVTVSSGGGGSGGGGSGGGGSGGGGSGGGGSGGGGSEVQLVESGGGLVQPGGSLRLACAVSGPGLIFKFTGVAWYRRQVPGAKRGLVALITGDGATRYGDSVKGRFTVSRDIAAKRVYLEMNDLRSEDTAVYYCKTGEYWGQGTQVTVSSEQKLISEEDLHHHHHH | 2.43 fold | 0 | 5.2% | 2.58% | 0.71 | 0.16 | 0.62 | 2.29 | ≤ 60% | -2.41 | -14.8 | -2.92 | > 40% | 9.24% | – | – | – | –
2 | US28-13-5G6-1D3 (antibody, V domains shown, also called US28-13-5G6-1D3 rAb; 13-5G6-1D3 clone) VH: EVKLVESGGGLVQPGGSLRLACATSGFTFTDYYMSWVRQPPGKALEWLGFIRSKANGYTTEYSASVKGRFTISRDNSQSILYLQMNTLRSEDSATYYCARDERRTAWLAYWGQGTLVTVSA VL: DVLMTQTPLSLPVSLGDQASISCRSSQSIVHSNGNTYLDWYLQKPGQSPKLLIYKVSNRFSGVPDRFSGSGSGTDFTLKISRVEAEDLGVYYCFQGSHVPTWTFGGGTKLEIKR | ~15 fold | – | 18.2% | 12.9% | – | – | – | – | ~100% | – | – | – | < 10% | 16.6% | 1.65 fold | ~16 fold | 1.65 fold | –
3 | monovalent VUN100 (VHH, also called Mv VUN100; VUN100 Ab) VHH: EVQLVESGGGLVQPGGSLRLACAVSGPGLIFKFTGVAWYRRQVPGAKRGLVALITGDGATRYGDSVKGRFTVSRDIAAKRVYLEMNDLRSEDTAVYYCKTGEYWGQGTQVTVSS | < 1 fold | – | 4.33% | 1.41% | – | – | – | – | ≤ 60% | – | – | – | > 35% | 6.91% | – | – | – | no binding
